Consider four molecules from PMC2172161 (The Journal of Cell Biology, 2004).

Data set [1] deals with the molecule itself. The data set can be described thus: fluorescence microscopy of purified complexes on slides.
The target of another data set is T1, GST-Cla4 (S. cerevisiae, UniProt P48562 1-842).
T1 sequence: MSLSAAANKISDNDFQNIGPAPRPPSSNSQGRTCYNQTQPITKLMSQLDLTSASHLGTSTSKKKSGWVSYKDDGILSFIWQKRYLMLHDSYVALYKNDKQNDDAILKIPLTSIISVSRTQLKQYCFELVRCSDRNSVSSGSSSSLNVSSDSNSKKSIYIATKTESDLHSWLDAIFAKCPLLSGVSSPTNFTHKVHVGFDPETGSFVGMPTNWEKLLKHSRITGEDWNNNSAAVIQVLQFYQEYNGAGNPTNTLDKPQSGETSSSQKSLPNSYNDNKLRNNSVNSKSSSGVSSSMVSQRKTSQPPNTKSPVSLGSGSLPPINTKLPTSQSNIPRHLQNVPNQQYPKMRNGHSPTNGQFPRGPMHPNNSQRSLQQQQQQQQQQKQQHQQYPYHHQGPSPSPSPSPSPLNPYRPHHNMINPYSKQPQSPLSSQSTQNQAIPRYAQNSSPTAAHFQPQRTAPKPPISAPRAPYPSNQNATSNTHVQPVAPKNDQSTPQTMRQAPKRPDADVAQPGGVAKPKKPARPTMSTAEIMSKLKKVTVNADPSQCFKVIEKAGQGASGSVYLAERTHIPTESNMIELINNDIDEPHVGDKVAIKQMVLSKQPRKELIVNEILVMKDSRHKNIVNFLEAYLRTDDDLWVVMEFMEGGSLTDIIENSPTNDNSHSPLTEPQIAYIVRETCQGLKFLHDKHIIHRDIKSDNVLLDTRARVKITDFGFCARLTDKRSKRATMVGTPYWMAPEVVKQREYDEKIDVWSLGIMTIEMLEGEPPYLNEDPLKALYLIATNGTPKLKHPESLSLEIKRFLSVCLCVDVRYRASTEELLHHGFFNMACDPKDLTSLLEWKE
The data set can be described thus: pull-down.

B1: His6Cdc12–Cdc3–Cdc10–Cdc11 complex (complex)
chain 1: MSAATATAAPVPPPVGISNLPNQRYKIVNEEGGTFTVMLCGESGLGKTTFINTLFQTVLKRADGQQHRQEPIRKTVEIDITRALLEEKHFELRVNVIDTPGFGDNVNNNKAWQPLVDFIDDQHDSYMRQEQQPYRTKKFDLRVHAVLYFIRPTGHGLKPIDIETMKRLSTRANLIPVIAKADTLTAQELQQFKSRIRQVIEAQEIRIFTPPLDADSKEDAKSGSNPDSAAVEHARQLIEAMPFAIVGSEKKFDNGQGTQVVARKYPWGLVEIENDSHCDFRKLRALLLRTYLLDLISTTQEMHYETYRRLRLEGHENTGEGNEDFTLPAIAPARKLSHNPRYKEEENALKKYFTDQVKAEEQRFRQWEQNIVNERIRLNGDLEEIQGKVKKLEEQVKSLQVKKSHLK
chain 2: MSLKEEQVSIKQDPEQEERQHDQFNDVQIKQESQDHDGVDSQYTNGTQNDDSERFEAAESDVKVEPGLGMGITSSQSEKGQVLPDQPEIKFIRRQINGYVGFANLPKQWHRRSIKNGFSFNLLCVGPDGIGKTTLMKTLFNNDDIEANLVKDYEEELANDQEEEEGQGEGHENQSQEQRHKVKIKSYESVIEENGVKLNLNVIDTEGFGDFLNNDQKSWDPIIKEIDSRFDQYLDAENKINRHSINDKRIHACLYFIEPTGHYLKPLDLKFMQSVYEKCNLIPVIAKSDILTDEEILSFKKTIMNQLIQSNIELFKPPIYSNDDAENSHLSERLFSSLPYAVIGSNDIVENYSGNQVRGRSYPWGVIEVDNDNHSDFNLLKNLLIKQFMEELKERTSKILYENYRSSKLAKLGIKQDNSVFKEFDPISKQQEEKTLHEAKLAKLEIEMKTVFQQKVSEKEKKLQKSETELFARHKEMKEKLTKQLKALEDKKKQLELSINSASPNVNHSPVPTKKKGFLR
chain 3: MDPLSSVQPASYVGFDTITNQIEHRLLKKGFQFNIMVVGQSGLGKSTLINTLFASHLIDSATGDDISALPVTKTTEMKISTHTLVEDRVRLNINVIDTPGFGDFIDNSKAWEPIVKYIKEQHSQYLRKELTAQRERFITDTRVHAILYFLQPNGKELSRLDVEALKRLTEIANVIPVIGKSDTLTLDERTEFRELIQNEFEKYNFKIYPYDSEELTDEELELNRSVRSIIPFAVVGSENEIEINGETFRGRKTRWSAINVEDINQCDFVYLREFLIRTHLQDLIETTSYIHYEGFRARQLIALKENANSRSSAHMSSNAIQR
chain 4: MSGIIDASSALRKRKHLKRGITFTVMIVGQSGSGRSTFINTLCGQQVVDTSTTILLPTDTSTEIDLQLREETVELEDDEGVKIQLNIIDTPGFGDSLDNSPSFEIISDYIRHQYDEILLEESRVRRNPRFKDGRVHCCLYLINPTGHGLKEIDVEFIRQLGSLVNIIPVISKSDSLTRDELKLNKKLIMEDIDRWNLPIYNFPFDEDEISDEDYETNMYLRTLLPFAIIGSNEVYEMGGDVGTIRGRKYPWGILDVEDSSISDFVILRNALLISHLHDLKNYTHEILYERYRTEALSGESVAAESIRPNLTKLNGSSSSSTTTRRNTNPFKQSNNINNDVLNPASDMHGQSTGENNETYMTREEQIRLEEERLKAFEERVQQELLLKRQELLQREKELREIEARLEKEAKIKQEE
As to B1, in data set [1], the binding result is given as “binds”.

B2: His6-Cdc3 (natural protein)
chain: MSLKEEQVSIKQDPEQEERQHDQFNDVQIKQESQDHDGVDSQYTNGTQNDDSERFEAAESDVKVEPGLGMGITSSQSEKGQVLPDQPEIKFIRRQINGYVGFANLPKQWHRRSIKNGFSFNLLCVGPDGIGKTTLMKTLFNNDDIEANLVKDYEEELANDQEEEEGQGEGHENQSQEQRHKVKIKSYESVIEENGVKLNLNVIDTEGFGDFLNNDQKSWDPIIKEIDSRFDQYLDAENKINRHSINDKRIHACLYFIEPTGHYLKPLDLKFMQSVYEKCNLIPVIAKSDILTDEEILSFKKTIMNQLIQSNIELFKPPIYSNDDAENSHLSERLFSSLPYAVIGSNDIVENYSGNQVRGRSYPWGVIEVDNDNHSDFNLLKNLLIKQFMEELKERTSKILYENYRSSKLAKLGIKQDNSVFKEFDPISKQQEEKTLHEAKLAKLEIEMKTVFQQKVSEKEKKLQKSETELFARHKEMKEKLTKQLKALEDKKKQLELSINSASPNVNHSPVPTKKKGFLR
B2: in the data set with GST-Cla4, the binding result is given as “binds”.

B3: Heterotetrameric complex containing just Cdc12(T48N), but wild-type Cdc3, Cdc10, and Cdc11 (complex)
chain 1: MSAATATAAPVPPPVGISNLPNQRYKIVNEEGGTFTVMLCGESGLGKNTFINTLFQTVLKRADGQQHRQEPIRKTVEIDITRALLEEKHFELRVNVIDTPGFGDNVNNNKAWQPLVDFIDDQHDSYMRQEQQPYRTKKFDLRVHAVLYFIRPTGHGLKPIDIETMKRLSTRANLIPVIAKADTLTAQELQQFKSRIRQVIEAQEIRIFTPPLDADSKEDAKSGSNPDSAAVEHARQLIEAMPFAIVGSEKKFDNGQGTQVVARKYPWGLVEIENDSHCDFRKLRALLLRTYLLDLISTTQEMHYETYRRLRLEGHENTGEGNEDFTLPAIAPARKLSHNPRYKEEENALKKYFTDQVKAEEQRFRQWEQNIVNERIRLNGDLEEIQGKVKKLEEQVKSLQVKKSHLK
chain 2: MSLKEEQVSIKQDPEQEERQHDQFNDVQIKQESQDHDGVDSQYTNGTQNDDSERFEAAESDVKVEPGLGMGITSSQSEKGQVLPDQPEIKFIRRQINGYVGFANLPKQWHRRSIKNGFSFNLLCVGPDGIGKTTLMKTLFNNDDIEANLVKDYEEELANDQEEEEGQGEGHENQSQEQRHKVKIKSYESVIEENGVKLNLNVIDTEGFGDFLNNDQKSWDPIIKEIDSRFDQYLDAENKINRHSINDKRIHACLYFIEPTGHYLKPLDLKFMQSVYEKCNLIPVIAKSDILTDEEILSFKKTIMNQLIQSNIELFKPPIYSNDDAENSHLSERLFSSLPYAVIGSNDIVENYSGNQVRGRSYPWGVIEVDNDNHSDFNLLKNLLIKQFMEELKERTSKILYENYRSSKLAKLGIKQDNSVFKEFDPISKQQEEKTLHEAKLAKLEIEMKTVFQQKVSEKEKKLQKSETELFARHKEMKEKLTKQLKALEDKKKQLELSINSASPNVNHSPVPTKKKGFLR
chain 3: MDPLSSVQPASYVGFDTITNQIEHRLLKKGFQFNIMVVGQSGLGKSTLINTLFASHLIDSATGDDISALPVTKTTEMKISTHTLVEDRVRLNINVIDTPGFGDFIDNSKAWEPIVKYIKEQHSQYLRKELTAQRERFITDTRVHAILYFLQPNGKELSRLDVEALKRLTEIANVIPVIGKSDTLTLDERTEFRELIQNEFEKYNFKIYPYDSEELTDEELELNRSVRSIIPFAVVGSENEIEINGETFRGRKTRWSAINVEDINQCDFVYLREFLIRTHLQDLIETTSYIHYEGFRARQLIALKENANSRSSAHMSSNAIQR
chain 4: MSGIIDASSALRKRKHLKRGITFTVMIVGQSGSGRSTFINTLCGQQVVDTSTTILLPTDTSTEIDLQLREETVELEDDEGVKIQLNIIDTPGFGDSLDNSPSFEIISDYIRHQYDEILLEESRVRRNPRFKDGRVHCCLYLINPTGHGLKEIDVEFIRQLGSLVNIIPVISKSDSLTRDELKLNKKLIMEDIDRWNLPIYNFPFDEDEISDEDYETNMYLRTLLPFAIIGSNEVYEMGGDVGTIRGRKYPWGILDVEDSSISDFVILRNALLISHLHDLKNYTHEILYERYRTEALSGESVAAESIRPNLTKLNGSSSSSTTTRRNTNPFKQSNNINNDVLNPASDMHGQSTGENNETYMTREEQIRLEEERLKAFEERVQQELLLKRQELLQREKELREIEARLEKEAKIKQEE
Regarding B3, the binding result in data set [1] is reported as “binds”.

B4: His6-Cdc10 (natural protein)
chain: MDPLSSVQPASYVGFDTITNQIEHRLLKKGFQFNIMVVGQSGLGKSTLINTLFASHLIDSATGDDISALPVTKTTEMKISTHTLVEDRVRLNINVIDTPGFGDFIDNSKAWEPIVKYIKEQHSQYLRKELTAQRERFITDTRVHAILYFLQPNGKELSRLDVEALKRLTEIANVIPVIGKSDTLTLDERTEFRELIQNEFEKYNFKIYPYDSEELTDEELELNRSVRSIIPFAVVGSENEIEINGETFRGRKTRWSAINVEDINQCDFVYLREFLIRTHLQDLIETTSYIHYEGFRARQLIALKENANSRSSAHMSSNAIQR
With B4, the binding result with GST-Cla4 is “binds”.
